Data taken from US9050375B2, “Bi-specific digoxigenin binding antibodies” (priority 2009, dated 2015).
Where “and” joins values, the source holds several entries; their conditions need not be identical. Equal entries are not always repeated.

Columns and labels:
[1] = tested on: IGF1R expressing H322M tumor xenografts; assay: Near Infrared Fluorescence Imaging (NIRF) in vivo, H322M xenografts; set-up: species or system mice; settings: not complexed with antibody; some accumulation in the liver
Description: To analyze if the specific antigen binding functionality of the antibody-complexes can be utilized to specifically deliver imaging reagents to tumor cells, we performed Near Infrared Fluorescence Imaging Studies (NIRF) in vivo. […] These xenografts were either expressing the antigen Her2 (KPL4 cells) or the antigen IGF1R (H322M cells). Subsequently NIRF imaging was performed by using the Maestro system from CRI. Animals were placed in a measuring chamber and the fluorescence was measured over a defined spectral wavelength array, depending on the dye. Spectral information of each pixel of the obtained image was analyzed by a special software which allows to separate different pre-defined spectra, e.g. autofluorescence and the signal of the dye. Theses separated specific signals were quantified by the Maestro software in order to compare different samples.
To analyze whether the <Her2>-<Dig>-Dig-siRNA complexes, and <IGF1R>-<Dig>-Dig-siRNA complexes mediate specific targeting of their payload towards antigen expressing cells not only in cell culture experiments but also in live animals, we made use of the fact that siRNAs can simultaneously be labeled with Dig as well as with fluorescence labels. […] The technology that we've applied for this task is Near Infrared Fluorescence Imaging (NIRF) in vivo. […]

[2] = tested on: CD22 positive Raji and Ramos cells; assay: FACS analysis with <CD22>-<DIG> and DIG-Cy5; type: cell-based; settings: 5 μg/ml <CD22>-<DIG>, DIG-Cy5 66.4 nM
Description: For these analyses we used CD22 positive Raji and Ramos cells and the bispecific <CD22>-<DIG> antibody. 3×10^5 cells per well of a 96-well-plate were incubated with 5 μg/ml of the <CD22>-<DIG> antibody in FACS buffer (PBS containing 5% FCS). After washing the cells were incubated with DIG-Cy5 in a final concentration of 66.4 nM. After another washing step cells were analysed with the FACS canto II (BD Biosciences).

[3] = Excitation and emission spectra of Cy5, Dig-Cy5 and complex; type: physicochemical
From the text: To evaluate whether digoxygenation of Cy5 alters its fluorescence features, we compared the excitation and emission spectra of Cy5 and compared it with the spectra of the newly generated Dig-Cy5 and with Dig-Cy5 within a complex with bispecific antibodies. […] We conclude that Dig-Cy5 and -complexes can be applied for antibody-mediated targeting and in vivo imaging.

MDA-MB-468 cells = assay: CellTiter Glo Luminescent Cell Viability Assay, doxorubicin; type: cell-based; settings: Homo sapiens, 48 hours
Description: (§2) Then, cell viability was assessed by applying the CellTiter Glo Luminescent Cell Viability Assay (Promega, Madison, Wis.).
These experiments included an additional breast tumor cell line MDA-MB-468. […] Thereafter, cell viability was assessed by applying the CellTiter Glo Luminescent Cell Viability Assay (Promega, Madison, Wis.).

H322M cells = assay: as above; type: cell-based; settings: Homo sapiens, NCI-H322M, 48 hours
Description: as §2

KPL-4 cells = assay: as above; type: cell-based; settings: Homo sapiens, KPL4, 48 hours
Description: as §2

Eg5-siRNA-(2×)DIG = assay: SPR (Biacore) binding to bi-digoxygenated siRNA; settings: 25° C., read-out: KD, binding of siRNA-(2x)DIG
Description: (§3) For that, binding properties of the recombinant <Dig> derivatives were analyzed by surface plasmon resonance (SPR) technology using a Biacore T100 or Biacore 3000 instrument (GE Healthcare Bio-Sciences AB, Uppsala). […] To perform the binding studies capturing anti-human IgG antibody was immobilized on the surface of a CM5 biosensor chip using amine-coupling chemistry. Flow cells were activated with a 1:1 mixture of 0.1 M N-hydroxysuccinimide and 0.1 M 3-(N,N-dimethylamino)propyl-N-ethylcarbodiimide at a flow rate of 5 μl/min. […] A reference control flow cell was treated in the same way but with vehicle buffers only instead of the capturing antibody. Surfaces were blocked with an injection of 1 M ethanolamine/HCl pH 8.5. […]
(§4) Anti-mouse IgG antibody was immobilized on the surface of a CM5 biosensor chip in the same fashion as described above. […] The samples to be analyzed were diluted in HBS-P (10 mM HEPES, pH 7.4, 150 mM NaCl, 0.005% Surfactant P20) and injected at a flow rate of 5 μl/min. […] Signals were detected at a rate of one signal per second.
(§5) The samples to be analyzed were diluted in HBS-P and injected at a flow rate of 5 μl/min. […]

DIG-Myoglobin = assay: SPR binding to mono-digoxygenated protein DIG-myoglobin; settings: analyte DIG-Myoglobin; replicate lines; listed as <DIG>hu2
Description: (§1) For that, binding properties of the recombinant <Dig> derivatives were analyzed by surface plasmon resonance (SPR) technology using a Biacore T100 or Biacore 3000 instrument (GE Healthcare Bio-Sciences AB, Uppsala). This system is well established for the study of molecule interactions. It allows a continuous real-time monitoring of ligand/analyte bindings and thus the determination of association rate constants (ka), dissociation rate constants (kd), and equilibrium constants (KD) in various assay settings. SPR-technology is based on the measurement of the refractive index close to the surface of a gold coated biosensor chip. Changes in the refractive index indicate mass changes on the surface caused by the interaction of immobilized ligand with analyte injected in solution. If molecules bind to immobilized ligand on the surface the mass increases, in case of dissociation the mass decreases. To perform the binding studies capturing anti-human IgG antibody was immobilized on the surface of a CM5 biosensor chip using amine-coupling chemistry. Flow cells were activated with a 1:1 mixture of 0.1 M N-hydroxysuccinimide and 0.1 M 3-(N,N-dimethylamino)propyl-N-ethylcarbodiimide at a flow rate of 5 μl/min. […] A reference control flow cell was treated in the same way but with vehicle buffers only instead of the capturing antibody. Surfaces were blocked with an injection of 1 M ethanolamine/HCl pH 8.5. To compare the binding of the humanized protein variants with that of the murine <Dig> IgG from the original hybridoma 19-11, capturing anti-mouse IgG antibody was immobilized on the surface of a CM5 biosensor chip in the same fashion as described above for the anti-human IgG antibody. To evaluate the functionality of the recombinant <Dig> derivatives, binding of the recombinant hu<Dig> modules, incl. (i) humanized IgG, (ii) fusion proteins harboring hu<Dig> scFv or (iii) disulfide-stabilized scFvs was assayed with different digoxygenated antigens The resulting binding affinities were compared to the binding of the murine ‘wildtype’ DIG-IgG from which the recombinant humanized modules were derived.
Another SPR study was performed in which the binding affinity of <DIG>-hu2, IGF1R-DIG and <DIG> M-19-11 was compared in terms of binding to the mono-digoxygenated protein DIG-myoglobin.

[4] = SPR (BiaCore) of sequence-optimized anti-Dig modules; type: binding; settings: FIG. 46 c, d, read-out: KD of anti-Dig module
From the text: Further optimization of the humanized VH and VL sequences of the anti-digoxygenin antibody was applied to generate modules with even higher affinity towards digoxygenin. Based upon the experimentally determined as well as in-silico calculated predicted structures (see above, based upon structure modeling without experimental structure determination), we identified three positions in which alterations might affect affinity. These were located at (Kabat positions) Ser49, Ile57 and Ala60 of the VH domain (FIG. 46). Replacement of the amino acid VHSer49 with Ala, VHIle57 with Ala and of VHAla60 with Pro generated antibody derivatives with sequences that are listed as SEQ ID NO 36 and SEQ ID NO 37. […] The relevance of these positions was thereafter confirmed by inspecting the experimentally determined structure of the dig-binding variable region. The digoxygenin binding module with improved affinity can be applied as hapten-binding entity for various bi- and multispecific antibody derivatives.
For that, binding properties of the recombinant <Dig> derivatives were analyzed by surface plasmon resonance (SPR) technology using a Biacore T100 or Biacore 3000 instrument (GE Healthcare Bio-Sciences AB, Uppsala). This system is well established for the study of molecule interactions. […]

Eg5-siRNA-DIG = assay: SPR (Biacore) binding to mono-digoxygenated siRNA; settings: 25° C.
Description: as §3, §4, §5

DIG-siRNA2349 = assay: SPR binding to DIG-siRNA2349; settings: analyte DIG-siRNA2349; replicate lines; listed as <DIG>hu2
Description: as §1, with “derived. […]” for “derived.”

CCN1c2ccc(S(=O)(=O)O)cc2C(C)(C)C1/C=C/C=C/C=C1\N(CCCCCC(=O)NCCNC(=O)CO[C@H]2CC[C@@]3(C)[C@H](CC[C@@H]4[C@@H]3C[C@@H](O)[C@]3(C)[C@@H](C5=CC(=O)OC5)CC[C@]43O)C2)c2ccc(S(=O)(=O)O)cc2C1(C)C (stereo partly drawn) [Dig-Cy5]
tumor specific fluorescence (NIRF) without antibody [1]: no tumor specific fluorescence | binding to Raji or Ramos cells (FACS) [2]: hardly any binding | Emission wavelength (max.) [3]: at 670 nm | Excitation wavelength [3]: 575-605 nm

COc1cccc2c1C(=O)c1c(O)c3c(c(O)c1C2=O)C[C@@](O)(C(=O)CO)C[C@@H]3O[C@H]1C[C@H](N)[C@H](O)[C@H](C)O1 [doxorubicin, Doxorubicin]
IC50 (MDA-MB-468 cells): 17000 nM | IC50 (H322M cells): 25000 nM | IC50 (KPL-4 cells): 2600 nM

B1: humanized DIG-IgG: recombinant humanized anti-digoxigenin IgG; Seq. ID. NO. 3-6 (antibody, V domains shown)
VH: QVQLVESGGGLVKPGGSLRLSCAASGFTFSDYAMSWIRQAPGKGLEWVSSINIGATYIYYADSVKGRFTISRDNAKNSLYLQMNSLRAEDTAVYYCARPGSPYEYDKAYYSMAYWGQGTTVTVSS
VL: DIQMTQSPSSLSASVGDRVTITCRASQDIKNYLNWYQQKPGKAPKLLIYYSSTLLSGVPSRFSGSGSGTDFTLTISSLQPEDFATYYCQQSITLPPTFGGGTKVEIKR
notes: recombinant humanized anti-digoxigenin IgG; ID; NO; 3-6
Kd (Eg5-siRNA-(2×)DIG): 0.008 nM | ka (DIG-Myoglobin): 620000 M⁻¹ s⁻¹ and 749000 M⁻¹ s⁻¹ | kd (DIG-Myoglobin): 0.00982 s⁻¹ and 0.00881 s⁻¹ | Kd [4]: 12 nM | Kd (Eg5-siRNA-DIG): 12 nM | Kd (DIG-siRNA2349): 14.5 nM and 15.6 nM | ka (DIG-siRNA2349): 645000 M⁻¹ s⁻¹ and 628000 M⁻¹ s⁻¹ | kd (DIG-siRNA2349): 0.00937 s⁻¹ and 0.0098 s⁻¹
